Measurements published in paper PMC10063554.

Key:
[1] = molecular target: evolved PTH1R variant P34_05 (human) (UniProt Q03431); assay: AlphaScreen or HTRF; binding of 40 nM M-PTH(1–14) to membrane fractions supplemented with increasing concentrations of mini-Gs; data relative to PTH1R without mini-Gs; EC50 of mini-Gs read through ligand occupancy, apparent
[2] = molecular target: evolved PTH1R variant P34_13 (human) (UniProt Q03431); assay: as above
[3] = molecular target: SNAP-tagged NTR1-R167L (rat) (UniProt P20789); assay: AlphaScreen or HTRF; whole HEK293T cells with SNAP-Lumi4-Tb-labelled NTR1; 2 nM HL488-NT(8–13) tracer with a range of unlabeled NT(8–13); 4 h on ice; 20 mM HEPES pH 7.5, 100 mM NaCl, 3 mM MgCl2, 0.02% BSA
UniProt P20789, sequence (P20789 43-424 R167L): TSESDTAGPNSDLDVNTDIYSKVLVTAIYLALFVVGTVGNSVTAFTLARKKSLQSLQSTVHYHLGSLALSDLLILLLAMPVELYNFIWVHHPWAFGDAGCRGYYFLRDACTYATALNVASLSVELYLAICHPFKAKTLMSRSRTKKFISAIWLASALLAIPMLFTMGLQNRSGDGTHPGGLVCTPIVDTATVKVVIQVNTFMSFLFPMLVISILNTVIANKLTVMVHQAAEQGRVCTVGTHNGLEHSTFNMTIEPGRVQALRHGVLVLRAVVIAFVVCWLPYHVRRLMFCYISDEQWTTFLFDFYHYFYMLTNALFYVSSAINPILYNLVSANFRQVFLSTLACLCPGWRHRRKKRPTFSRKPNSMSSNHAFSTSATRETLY

Substance	EC50 [1]	EC50 [2]	fold increase in affinity against wild-type NTR1 [3]
Mini-Gs 393	280 nM	380 nM	
Neurotensin 8–13 (peptide)			3 fold
